Reference: patent EP4782466A1, “FUSION PROTEIN FOR INACTIVATING CORONAVIRUS AND USE THEREOF” (priority 2023, dated 2025)

How the values were obtained:
Assay in all cases: cell-based or functional assay
[1] = target: S protein of SARS-CoV-2 Omicron BA.2.12.1 (SARS-CoV-2 BA.2.12.1)
[2] = target: S protein of SARS-CoV-2 Omicron BQ.1 (SARS-CoV-2 BQ.1)
[3] = target: S protein of SARS-CoV-2 Omicron BA.1 (SARS-CoV-2 BA.1)
[4] = target: S protein of SARS-CoV-2 Omicron BA.3 (SARS-CoV-2 BA.3)
[5] = target: S protein of SARS-CoV-2 Omicron BA.2.9 (SARS-CoV-2 BA.2.9)
[6] = target: S protein of SARS-CoV-2 Omicron BA.2.2 (SARS-CoV-2 BA.2.2)
[7] = target: S protein of SARS-CoV-2 Omicron XBB (SARS-CoV-2 XBB)
[8] = target: S protein of SARS-CoV-2 Omicron BA.2.75 (SARS-CoV-2 BA.2.75)
[9] = target: S protein of SARS-CoV-2 Delta (B.1.617.2) (SARS-CoV-2 Delta (B.1.617.2))
[10] = target: S protein of SARS-CoV-2 Beta (B.1.351) (SARS-CoV-2 Beta (B.1.351))
[11] = target: S protein of SARS-CoV-2 Omicron BA.2 (SARS-CoV-2 BA.2)
[12] = target: S protein of SARS-CoV-2 Alpha (B.1.1.7) (SARS-CoV-2 Alpha (B.1.1.7))
[13] = target: S protein of SARS-CoV-2 Lambda (SARS-CoV-2 Lambda)
[14] = target: S protein of SARS-CoV-2 Omicron BA.5 (SARS-CoV-2 BA.5)
[15] = target: S protein of SARS-CoV-2 Gamma (P.1) (SARS-CoV-2 Gamma (P.1))
[16] = target: S protein of SARS-CoV-2 Omicron BF.7 (SARS-CoV-2 BF.7)
[17] = target: S protein of SARS-CoV-2 Omicron BA.4.6 (SARS-CoV-2 BA.4.6)

Substance: EK1 polypeptide
- IC50, inhibition of pseudovirus infection (Caco-2, luciferase) [1]: 342 nM
- IC50, inhibition of pseudovirus infection (Caco-2, luciferase) [2]: 136 nM
- IC50, inhibition of pseudovirus infection (Caco-2, luciferase) [3]: 70.5 nM
- IC50, inhibition of pseudovirus infection (Caco-2, luciferase) [4]: 136 nM
- IC50, inhibition of pseudovirus infection (Caco-2, luciferase) [5]: 199 nM
- IC50, inhibition of pseudovirus infection (Caco-2, luciferase) [6]: 162 nM
- IC50, inhibition of pseudovirus infection (Caco-2, luciferase) [7]: 233 nM
- IC50, inhibition of pseudovirus infection (Caco-2, luciferase) [8]: 331 nM
- IC50, inhibition of pseudovirus infection (Caco-2, luciferase) [9]: 150 nM
- IC50, inhibition of pseudovirus infection (Caco-2, luciferase) [10]: 257 nM
- IC50, inhibition of pseudovirus infection (Caco-2, luciferase) [11]: 297 nM
- IC50, inhibition of pseudovirus infection (Caco-2, luciferase) [12]: 268 nM
- IC50, inhibition of pseudovirus infection (Caco-2, luciferase) [13]: 995 nM
- IC50, inhibition of pseudovirus infection (Caco-2, luciferase) [14]: 568 nM
- IC50, inhibition of pseudovirus infection (Caco-2, luciferase) [15]: 277 nM
- IC50, inhibition of pseudovirus infection (Caco-2, luciferase) [16]: 584 nM
- IC50, inhibition of pseudovirus infection (Caco-2, luciferase) [17]: 473 nM
